Reference: patent US20150361183A1 (IMPERIAL INNOVATIONS, published 2015)
Each block holds one binder with its values, some of them ahead of it.

Key:
[1] = target: the molecule itself; assay: MALS / size exclusion chromatography
From the text: FIG. 3(a) Generation of a CFHR5 protein lacking critical amino acids within the dimerisation motif. Monomeric CFHR5 (CFHR5^{dimer mutant}) was generated by mutating the three stabilizing amino acids (Tyr34Ser, Ser36 Tyr, Tyr39Glu) within the dimerisation motif to the corresponding amino acids within CFH. FIG. 3(b) Analysis of recombinant CFHR5 and CFHR5^{dimer mutant} using SDS PAGE gel electrophoresis. Both the wild type and dimer mutants were purified to single homogenous species as visualized by denaturing electrophoresis. FIG. 3(c) Analysis of recombinant CFHR5 and CFHR5^{dimer mutant} using size exclusion chromatography. Size exclusion chromatography was performed on a Superdex200 10/30 column (GE Healthcare) equilibrated in 50 mM Tris.HCl, pH 7.5, 150 mM NaCl at 0.4 ml/min. The column was followed in-line by an Optilab-Rex refractive index monitor (Wyatt Technologies). The CFHR5 dimer elutes early from the column (blue trace) whilst the monomeric CFHR5^{dimer mutant} protein elutes at a larger column volume (red trace). FIG. 3(d) Interaction of CFHR5 and CFHR5^{dimer mutant} with renal-bound mouse C3 in vivo.
The inventors next explored the functional consequences of dimerisation. They predicted that dimerisation would enhance ligand interaction through avidity. To test this they generated monomeric and dimeric CFHR5 proteins. […]

X-ray crystal structure = target: the molecule itself; assay: X-ray crystal structure
Procedure: Crystals were grown using the sitting drop vapour diffusion method from 0.2 μL, protein+0.2 μL mother liquor drops at […] using protein stocks at A280=3.3 and 7.8 for CFHR112 and CFHR234 respectively. CFHR112 crystals grew from a mother liquor containing 36% PEG 2000 MME, 0.1M MES pH 6.5. CFHR234 crystals grew in 30% PEG 8000, 0.2M ammonium sulphate. Crystals were plunge cooled in liquid nitrogen following cryoprotection in 20% and 15% ethylene glycol for CFHR112 and CFHR234, respectively. Data were collected at both the ESRF and DIAMOND using the rotation method with oscillation ranges of 0.150 or 0.20 at 120 K. CFHR112 data were collected at beamline ID29 (ESRF, Grenoble) with λ=1.7105 Å. CFHR234 data were collected at beamline I04-1 (DIAMOND, UK) with λ=0.9173 Å. Data were integrated and scaled using XIA2 19 with the −3dii option to enforce usage of XDS 20 for integration and SCALA for scaling 21.

C5 = target: T1, C5 (UniProt P01031 19-673; P01031 678-1676, limits assumed); assay: SPR, CFHR112 immobilised (750 RU), C5 flowed
T1 construct: also called complement C5
T1 sequence (P01031 19-673 limits assumed, chain 1 of 2): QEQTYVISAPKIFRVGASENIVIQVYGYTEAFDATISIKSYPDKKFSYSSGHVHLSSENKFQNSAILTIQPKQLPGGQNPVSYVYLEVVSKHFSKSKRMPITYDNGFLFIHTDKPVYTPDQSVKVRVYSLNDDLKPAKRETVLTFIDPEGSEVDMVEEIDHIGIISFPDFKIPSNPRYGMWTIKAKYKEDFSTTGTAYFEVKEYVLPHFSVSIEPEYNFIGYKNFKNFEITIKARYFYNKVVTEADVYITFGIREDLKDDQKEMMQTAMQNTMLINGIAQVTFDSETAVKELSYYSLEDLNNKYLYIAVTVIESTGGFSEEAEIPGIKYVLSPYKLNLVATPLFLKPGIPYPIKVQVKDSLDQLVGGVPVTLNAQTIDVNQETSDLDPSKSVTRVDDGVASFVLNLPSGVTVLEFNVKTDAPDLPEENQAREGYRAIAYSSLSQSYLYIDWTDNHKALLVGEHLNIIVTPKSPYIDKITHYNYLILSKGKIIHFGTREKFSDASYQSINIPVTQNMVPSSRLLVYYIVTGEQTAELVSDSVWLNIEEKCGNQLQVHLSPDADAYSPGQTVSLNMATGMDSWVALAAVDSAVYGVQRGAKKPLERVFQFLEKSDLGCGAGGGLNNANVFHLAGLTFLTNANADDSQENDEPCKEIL
T1 sequence (P01031 678-1676 limits assumed, chain 2 of 2): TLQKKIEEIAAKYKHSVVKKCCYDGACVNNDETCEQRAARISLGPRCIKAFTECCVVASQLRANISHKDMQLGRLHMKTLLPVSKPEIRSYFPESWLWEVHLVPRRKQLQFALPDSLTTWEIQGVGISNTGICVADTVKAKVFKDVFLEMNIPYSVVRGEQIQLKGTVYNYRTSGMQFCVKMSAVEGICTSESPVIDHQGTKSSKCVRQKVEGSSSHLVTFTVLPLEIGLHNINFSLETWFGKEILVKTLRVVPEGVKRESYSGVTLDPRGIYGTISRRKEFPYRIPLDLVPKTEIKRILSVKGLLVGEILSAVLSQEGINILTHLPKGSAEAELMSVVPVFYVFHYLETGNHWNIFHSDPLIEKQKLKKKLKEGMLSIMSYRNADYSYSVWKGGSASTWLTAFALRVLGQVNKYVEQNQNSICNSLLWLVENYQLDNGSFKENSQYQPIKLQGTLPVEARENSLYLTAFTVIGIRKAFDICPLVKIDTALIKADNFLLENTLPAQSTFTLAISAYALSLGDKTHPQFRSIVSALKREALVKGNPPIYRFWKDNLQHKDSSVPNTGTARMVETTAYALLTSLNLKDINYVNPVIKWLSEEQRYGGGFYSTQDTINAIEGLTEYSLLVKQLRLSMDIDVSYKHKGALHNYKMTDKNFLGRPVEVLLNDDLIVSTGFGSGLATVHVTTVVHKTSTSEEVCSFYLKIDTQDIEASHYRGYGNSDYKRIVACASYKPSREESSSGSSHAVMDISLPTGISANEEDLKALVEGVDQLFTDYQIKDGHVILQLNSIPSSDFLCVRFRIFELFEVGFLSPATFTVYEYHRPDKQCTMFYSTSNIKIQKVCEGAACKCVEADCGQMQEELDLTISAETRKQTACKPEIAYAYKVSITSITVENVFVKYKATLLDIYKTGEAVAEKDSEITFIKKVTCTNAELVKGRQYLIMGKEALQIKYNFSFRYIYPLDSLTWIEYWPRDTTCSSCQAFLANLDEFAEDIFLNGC

B1: CFHR5 dimer mutant (Tyr34Ser, Ser36Tyr, Tyr39Glu) (other)
chain: EGTLCDFPKIHHGFLYDEEDYNPFSQVPTGEVFSYYCEENFVSPSKSFWTRITCTEEGWSPTPKCLRMCSFPFVKNGHSESSGLIHLEGDTVQIICNTGYSLQNNEKNISCVERGWSTPPICSFTKGECHVPILEANVDAQPKKESYKVGDVLKFSCRKNLIRVGSDSVQCYQFGWSPNFPTCKGQVRSCGPPPQLSNGEVKEIRKEEYGHNEVVEYDCNPNFIINGPKKIQCVDGEWTTLPTCVEQVKTCGYIPELEYGYVQPSVPPYQHGVSVEVNCRNEYAMIGNNMITCINGIWTELPMCVATHQLKRCKIAGVNIKTLLKLSGKEFNHNSRIRYRCSDIFRYRHSVCINGKWNPEVDCTEKREQFCPPPPQIPNAQNMTTTVNYQDGEKVAVLCKENYLLPEAKEIVCKDGRWQSLPRCVESTAYCGPPPSINNGDTTSFPLSVYPPGSTVTYRCQSFYKLQGSVTVTCRNKQWSEPPRCLDPCVVSEENMNKNNIQLKWRNDGKLYAKTGDAVEFQCKFPHKAMISSPPFRAICQEGKFEYPICE
notes: also called monomeric CFHR5
- binding result [1]: no binding

- binding result (C5): no binding
B2: CFHR112 (recombinant first two SCR domains of CFHR1) (other)
chain: EATFCDFPKINHGILYDEEKYKPFSQVPTGEVFYYSCEYNFVSPSKSFWTRITCTEEGWSPTPKCLRLCFFPFVENGHSESSGQTHLEGDTVQIICNTGYRLQNNENNISCVERGWSTPPKCRST
notes: Head-to-tail homodimer in crystal and in solution; also called CFHR1,2; recombinant CFHR1 domains 1 and 2
- binding result (X-ray crystal structure): binds
